Assay results as given in patent US20250154264A1 (GENOVAC ANTIBODY DISCOVERY, published 2025).

T1: human ALK5 on transiently transfected cells (human, UniProt P36897 34-503)
T1 construct: whole, on cells; also called ALK5 of human
T1 sequence (looked up): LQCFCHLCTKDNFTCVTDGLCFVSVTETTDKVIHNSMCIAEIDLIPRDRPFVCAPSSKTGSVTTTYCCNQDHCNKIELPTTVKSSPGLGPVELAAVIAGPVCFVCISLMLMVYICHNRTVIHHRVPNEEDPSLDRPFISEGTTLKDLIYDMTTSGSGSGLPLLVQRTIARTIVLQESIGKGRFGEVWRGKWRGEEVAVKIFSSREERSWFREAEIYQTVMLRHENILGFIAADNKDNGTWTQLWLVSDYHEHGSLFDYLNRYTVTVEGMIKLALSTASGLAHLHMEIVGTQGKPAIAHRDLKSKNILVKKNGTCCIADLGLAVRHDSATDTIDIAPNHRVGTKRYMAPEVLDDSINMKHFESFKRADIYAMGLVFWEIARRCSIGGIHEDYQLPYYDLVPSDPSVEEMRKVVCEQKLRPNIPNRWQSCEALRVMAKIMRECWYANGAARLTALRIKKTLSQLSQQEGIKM

T2: murine ALK1, N-terminally tagged, on transiently transfected cells (mouse, UniProt Q61288 23-502)
T2 construct: whole, on cells; also called mouse ALK1; murine orthologue; not shown: N-terminal tag used for the expression control
T2 sequence (looked up): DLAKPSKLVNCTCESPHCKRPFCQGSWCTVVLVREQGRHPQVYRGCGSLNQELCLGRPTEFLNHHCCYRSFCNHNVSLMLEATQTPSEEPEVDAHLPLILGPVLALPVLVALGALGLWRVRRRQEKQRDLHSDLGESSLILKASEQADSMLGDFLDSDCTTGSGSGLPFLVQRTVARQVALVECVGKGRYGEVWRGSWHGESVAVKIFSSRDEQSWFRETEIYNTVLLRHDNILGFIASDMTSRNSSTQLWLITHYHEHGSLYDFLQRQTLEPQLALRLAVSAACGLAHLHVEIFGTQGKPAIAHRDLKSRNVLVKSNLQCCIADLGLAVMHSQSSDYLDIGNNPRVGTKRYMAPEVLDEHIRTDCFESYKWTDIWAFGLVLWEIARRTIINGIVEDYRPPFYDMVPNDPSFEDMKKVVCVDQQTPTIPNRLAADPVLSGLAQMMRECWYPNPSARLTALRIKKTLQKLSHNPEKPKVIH


How the values were obtained:
[1] = biological target: T1, human ALK5 on transiently transfected …; test: flow cytometry, hybridoma supernatant on transiently transfected cells (Example 3)
Procedure: (§1) Flow cytometry was used to measure fluorescence intensity produced by fluorescent-labeled secondary antibodies detecting primary anti-ALK1 antibodies that bind to specific cell-associated ALK5 molecules. More precisely hybridoma supernatants containing primary antibodies were tested for binding to transiently transfected cells expressing ALK5 of human and mouse by flow cytometry. The signals were generated by use of secondary, PE-labelled goat anti-rat antibodies. In addition to testing the supernatants on non-transfected cells, ALK5 of human and mouse-transfected cells were incubated only with the secondary antibody (without supernatants) as a negative control.

[2] = biological target: T3, human ALK1 (Activin A receptor like type 1), N-terminally tagged, on transiently transfected cells (human, UniProt P37023 22-503); test: flow cytometry, hybridoma supernatant on transiently transfected cells, PE goat anti-rat secondary
T3 construct: also called ALK1 of human; ACVRL1; not shown: N-terminal tag used for the expression control
Procedure: as §1, with “Various isolated antibodies were assessed for the ability to bind ALK1 from mouse (murine), human, and cyno monkey. Flow” for “Flow”, “ALK1” for “ALK5”, “human, cyno monkey” for “human”

[3] = biological target: T2, murine ALK1, N-terminally tagged, on …; test: as above
Procedure: as §1, with “Various isolated antibodies were assessed for the ability to bind ALK1 from mouse (murine), human, and cyno monkey. Flow” for “Flow”, “ALK1” for “ALK5”, “human, cyno monkey” for “human”

T3 sequence (P37023 22-503): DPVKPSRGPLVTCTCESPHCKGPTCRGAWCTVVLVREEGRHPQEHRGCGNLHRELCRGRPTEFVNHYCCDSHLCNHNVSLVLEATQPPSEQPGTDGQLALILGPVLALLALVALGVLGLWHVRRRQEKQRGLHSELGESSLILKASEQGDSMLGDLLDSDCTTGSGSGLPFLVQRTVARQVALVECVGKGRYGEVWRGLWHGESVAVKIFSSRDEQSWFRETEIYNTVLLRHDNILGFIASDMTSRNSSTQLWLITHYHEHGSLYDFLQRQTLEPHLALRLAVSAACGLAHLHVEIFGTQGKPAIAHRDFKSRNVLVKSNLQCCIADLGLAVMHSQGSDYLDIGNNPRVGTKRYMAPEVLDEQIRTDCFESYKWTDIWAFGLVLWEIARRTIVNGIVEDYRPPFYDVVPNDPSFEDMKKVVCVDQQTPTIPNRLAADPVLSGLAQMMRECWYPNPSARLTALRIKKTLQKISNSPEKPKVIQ

binding result [1]	binding result [2]	binding result [3]	Binder
no binding	binds	binds	BVO-B-1H7-E3 (antibody, V domains shown, Tested as OmniRat hybridoma supernatant and detected with goat anti-rat secondary antibody) VH: QLQLQESGPGLVKPSETLSLTCTVSGGSISSRSYYWGWIRQPPGKGLEWIGNIYYSGSAFYNPSLKSRVTISVDTSKNQFSLKLSSVTAADTAVYYCARWDNWDVGAFDIWGQGTMVTVSS VL: QSALTQPPSASGSPGQSVTISCTGTSSDVGGYNYVSWYQQHPGKAPKLMIYEVSKRPSGVPDRFSGSKSGNTASLTVSGLQAEDEADYYCTSFAGSNNWVFGGGTKLTVL
no binding	binds	binds	BVO-A-9F7-A10 (antibody, V domains shown, Tested as OmniRat hybridoma supernatant and detected with goat anti-rat secondary antibody; also called BVO-A-9E7-A10) VH: QVQLQQWGAGLLKPSETLSLTCAVYGGSFSSSYWNWIRQPPGKGLEWIGEVNHSGSTNYNPSLKSRVTISLDTSKNQFSLKLSSVTAADTAVYYCARSPRSGRIVGAVFDYWGQGTLVTVSS VL: SYVLTQPPSVSVAPGQTARITCGGNNIGPKSVHWYQQKPGQAPVLVVYDDSDRPSGIPERFSGSNSGNTATLTISRVEAGDEADYYCQVWDSSNDHVVFGGGTKLTVL
